Laboratory results taken from patent US20080113383A1 (FIBRO GEN, published 2008).
Where no end group is shown, it is not given here.

How the values were obtained:
Test in all cases: cell-based or functional assay
[1] = target: EGLN1
[2] = target: EGLN3
[3] = target: EGLN2

Row | Activity (%)* [1] | Activity (%)* [2] | Activity (%)* [3] | Binder
1 | 49.2% | 42.5% | 37.7% | DTDLDLEANAPYIPADDDFQ [DTDLDLEANApYIPADDDFQ]
2 | 63.7% | 94.3% | 55.8% | DTDLDLEAMAPYIPADDDFQ [DTDLDLEAMApYIPADDDFQ]
3 | 63.2% | 44.1% | 54.6% | DTDLDLEAKAPYIPADDDFQ [DTDLDLEAKApYIPADDDFQ]
4 | 108% | 120% | 138% | DTDLDWEALAPYIPADDDFQ (not fully specified; printed as DTDLDWEALApYIPADDDFQ) [DTDLDWEALApYIPADDDFQ]
5 | 35.5% | 44.5% | 32.4% | DTDLDVEAYAPYIPADDDFQ (not fully specified; printed as DTDLDVEAYApYIPADDDFQ) [DTDLDVEAYApYIPADDDFQ]
6 | 50.4% | 37.3% | 42.4% | DTDLDLEAWAPYIPADDDFQ (not fully specified; printed as DTDLDLEAWApYIPADDDFQ) [DTDLDLEAWApYIPADDDFQ]
7 | 45.3% | 43.3% | 36.6% | DTDLDVEAIAPYIPADDDFQ (not fully specified; printed as DTDLDVEAIApYIPADDDFQ) [DTDLDVEAIApYIPADDDFQ]
8 | 99.2% | 117% | 86.8% | DTDLDLEAVAPYIPADDDFQ (not fully specified; printed as DTDLDLEAVApYIPADDDFQ) [DTDLDLEAVApYIPADDDFQ]
9 | 40.8% | 76.6% | 37.4% | DTDLDPEALAPYIPADDDFQ (not fully specified; printed as DTDLDPEALApYIPADDDFQ) [DTDLDPEALApYIPADDDFQ]

The next lines start with the binder.

Row | Binder | Activity (%)* [1] | Activity (%)* [2] | Activity (%)* [3]
10 | DTDLDAEALAPYIPADDDFQ [DTDLDAEALApYIPADDDFQ] | 51% | 87.2% | 46.9%
11 | DTDLDIEALAPYIPADDDFQ [DTDLDIEALApYIPADDDFQ] | 50.7% | 149% | 43.7%
12 | DTDLDCEALAPYIPADDDFQ [DTDLDCEALApYIPADDDFQ] | 44.7% | 75.8% | 48.8%
13 | DTDLDLEAAAPYIPADDDFQ [DTDLDLEAAApYIPADDDFQ] | 36.1% | 30.2% | 30.9%
14 | DTDLDLEACAPYIPADDDFQ [DTDLDLEACApYIPADDDFQ] | 41.3% | 49.4% | 40.4%
15 | DTDLDGEALAPYIPADDDFQ [DTDLDGEALApYIPADDDFQ] | 37.3% | 40.9% | 32%
16 | DTDLDEEALAPYIPADDDFQ [DTDLDEEALApYIPADDDFQ] | 49.6% | 80.8% | 44.3%
17 | DTDLDDEALAPYIPADDDFQ [DTDLDDEALApYIPADDDFQ] | 51% | 65% | 42.8%
